Experiment [1] deals with short version of the toxin domain (Ile323-the C-terminus) of MafB2_(MGI-2B16B6), no tag (N. meningitidis B16B6) (UniProt Q9JXD2). Nature of the experiment: ITC; Nano ITC, 20 °C, 10 mM Tris-HCl pH 8.0, 100 mM NaCl, 2 mM β-ME; 50 injections of 1 μl NmMafI2 (~1.3 mM) into NmMafB2-CT2 (~0.2 mM); independent binding sites model. A general note: Isothermal titration calorimetry measures the heat released or taken up as one component is titrated into another.

Experiment [2] concerns the target T1, short version of the toxin domain (Ile323-the C-terminus) of MafB2_(MGI-2B16B6), no tag (N. meningitidis B16B6, UniProt Q9JXD2 323-483).
T1 chain: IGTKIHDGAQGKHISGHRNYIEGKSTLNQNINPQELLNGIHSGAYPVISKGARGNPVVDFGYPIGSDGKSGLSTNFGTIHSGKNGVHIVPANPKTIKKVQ
Nature of the experiment: ITC.

In general, Kd refers to the free concentration of one partner at which half of the binding sites on the other are occupied at equilibrium, for simple one-to-one binding. A high value points to weaker binding. The term stoichiometry N denotes the number of molecules, sites or subunits per partner or assembly. In experiment [1], “MafI2_(MGI-2B16B6) with a C-terminal 6xHis-tag (from UniProt A0A0G4BSP3 1-139) (natural protein)” had a Kd of 40 nM and a stoichiometry N of 1.

B1: MafI2_(MGI-2B16B6) with a C-terminal 6xHis-tag (natural protein)
chain: MYKIKCFYDQFSSGELFNYCQFLDNSSNQKINTRGTVYQYIIYVLTGDLYLQKDIDENLEFIHQAENNPNEVYSGGGQGFCWDISAEKVVFYHNEFDEEDGWPDLSCSLHTFKTALIAWNAFLQLPKSIHSVVETVIEE
B1 had a Kd in experiment [2] of 35.1 nM.

The record behind these values is article PMC9970974 (2023).
